T1: nSR100 (Mus musculus, UniProt Q8BKA3)
T1 construct: host or cells: mouse N2A cells
T1 sequence (Q8BKA3 1-608): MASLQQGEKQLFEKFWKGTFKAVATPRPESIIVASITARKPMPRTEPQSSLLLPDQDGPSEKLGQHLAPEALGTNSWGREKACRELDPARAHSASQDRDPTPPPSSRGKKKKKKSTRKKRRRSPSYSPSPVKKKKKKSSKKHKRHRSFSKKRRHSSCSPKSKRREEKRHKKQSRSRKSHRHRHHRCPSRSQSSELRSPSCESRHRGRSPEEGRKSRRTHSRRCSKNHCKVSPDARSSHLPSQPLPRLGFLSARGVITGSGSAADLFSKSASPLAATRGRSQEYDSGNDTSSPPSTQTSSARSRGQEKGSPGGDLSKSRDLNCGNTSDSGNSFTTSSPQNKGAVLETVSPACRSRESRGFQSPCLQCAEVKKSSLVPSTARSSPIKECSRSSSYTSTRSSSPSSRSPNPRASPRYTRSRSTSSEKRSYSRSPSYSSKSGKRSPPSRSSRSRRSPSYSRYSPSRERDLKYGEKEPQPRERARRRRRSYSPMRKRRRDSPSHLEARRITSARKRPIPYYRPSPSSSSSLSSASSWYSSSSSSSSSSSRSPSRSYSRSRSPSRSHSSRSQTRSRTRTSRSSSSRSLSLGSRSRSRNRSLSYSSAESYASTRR

B1: Cwc22 (protein, UniProt Q8C5N3 1-908, looked up)
Pre-mRNA-splicing factor …: MKSSVAHMKSSGHNRRETHSSYRRSSSPEDRYTEQERSPRDRGYSDYSRSDYERSRRGYSYDDSMESRSRDREKRRERERDADHRKRSRKSPSPDRSPARGGGQSSPQEEPTWKKKKDELDPLLTRTGGAYIPPAKLRMMQEQITDKSSLAYQRMSWEALKKSINGLINKVNISNISIIIQELLQENIVRGRGLLSRSVLQAQSASPIFTHVYAALVAIINSKFPQIGELILKRLILNFRKGYRRNDKQLCLTASKFVAHLINQNVAHEVLCLEMLTLLLERPTDDSVEVAIGFLKECGLKLTQVSPRGINAIFERLRNILHESEIDKRVQYMIEVMFAVRKDGFKDHPVILEGLDLVEEDDQFTHMLPLEDDYNPEDVLNVFKMDPNFMENEEKYKAIKKEILDEGDSDSNTDQGAGSSEDEEEEDEEEEGEDEEGGQKVTIHDKTEINLVSFRRTIYLAIQSSLDFEECAHKLLKMEFAESQTKELCNMILDCCAQQRTYEKFFGLLAGRFCMLKKEYMESFESIFKEQYDTIHRLETNKLRNVAKMFAHLLYTDSLPWSVLECIKLSEETTTSSSRIFVKIFFQELCEYMGLPKLNARLKDETLQPFFEGLLPRDNPRNTRFAINFFTSIGLGGLTDELREHLKNTPKVIVAQKPEAEQKKPALTSSSSESSSASDSSDSESDSSESSSESSSDASDSSSSSSTQSSTSGITAHSAKGTRKKRQGKARGEEVDKLARGHQALERRREGGREDQRHQEGRTERARSERRRAQNSRDADWRDPLAKHIDDRSHENSHSRVGNGREQGSHREPEDRHGEPKKRRERRDSFSENEKQRSRNQDSDNVRRKDRSKSRERSRRHSGHKGDDARCQNSAERRWEKPGRRPEQSRESKRSQDRRREKSPTTQK
B2: Pgam5 (protein, UniProt Q8BX10 1-288, looked up)
Serine/threonine-protein …: MAFRQALQLAACGLAGGSAAVLFSAVAVGKPRGGGDADTRATEPPAWTGARAGRGVWDTNWDRREPLSLINLKKRNVESGEDELTSRLDHYKAKATRHIFLIRHSQYHVDGSLEKDRTLTPLGREQAELTGLRLASLGLKFNKIVHSSMTRAVETTDIISKHLPGVSRVSTDLLREGAPIEPDPPVSHWKPEAVQYYEDGARIEAAFRNYIHRADARQEEDSYEIFICHANVIRYIVCRALQFPPEGWLRLSLNNGSITHLVIRPNGRVALRTLGDTGFMPPDKITRS
B3: Poldip3 (protein, UniProt Q8BG81 2-420, looked up)
Polymerase delta-interacting …: ADLSLDELIRKRGTAAKGRLSVRPGIGGVRSRVGIQHSLVNQPARTATFQQRFDARQKIGLSDARLKLGVKDAREKLLQKDARFRIKGKVQDAREMLNSRKQQGTVPQKPRQVADAREKISLKRRSPAAFTSPPIGTVTPALKLTKTIQVPQQKAMVPLHAHPAGMRINVVNNHQAKQNLYDLDEDDDIVVPVPPKQMKFAATGSLVHHMTGLSSSKLSMSKALPLTKVVQNDAYTAPVLPSSVRTKALTSMSRTLVNKEEPPKELPPAEPVLSPLEGTKMTVNNLHPRVTEEDIVELFCVCGALKRARLVHPGVAEVVFVKKDDAITAYKKYNNRCLDGQPMKCNLHMNGNVITSDQPILLRLSDSPSVKKESELPRRGNPASSNPPAEVDPDTVLRALFKSSGASVTTQPTEFKIKL
B4: Necap1 (protein, UniProt Q9CR95 1-275, looked up)
Adaptin ear-binding …: MAAELEYESVLCVKPDVSVYRIPPRASNRGYRASDWKLDQPDWTGRLRITSKGKIAYIKLEDKVSGELFAQAPVEQYPGIAVETVTDSSRYFVIRIQDGTGRSAFIGIGFTDRGDAFDFNVSLQDHFKWVKQETEISKESQEMDNRPKLDLGFKEGQTIKLSIGNITAKKGGASKPRASGTGGLSLLPPPPGGKVTIPPPSSSVAISNHVTPPPIPKSNHGGNDSDILLDLDSPAPVSTSAPAPVSTSNDLWGDFSTASSSVPNQAPQPSNWVQF
B5: Ddx41 (protein, UniProt Q91VN6 1-622, looked up)
Probable ATP-dependent RNA …: MEDSEPERKRARADEATAGGSRSEDEDEDDEDYVPYVPLRQRRQLLLQKLLQRRRKGATEEEQQDSGSEPRGDEDDIPLGPQSNVSLLDQHQHLKEKAEARKESAKEKQLKEEEKILESVAEGRALMSVKEMAKGITYDDPIKTSWTPPRYVLSMSEERHERVRKKYHILVEGDGIPPPIKSFKEMKFPAAILRGLKKKGILHPTPIQIQGIPTILSGRDMIGIAFTGSGKTLVFTLPVIMFCLEQEKRLPFSKREGPYGLIICPSRELARQTHGILEYYCRLLQEDSSPLLRCALCIGGMSVKEQMETIRHGVHMMVATPGRLMDLLQKKMVSLDICRYLALDEADRMIDMGFEGDIRTIFSYFKGQRQTLLFSATMPKKIQNFAKSALVKPVTINVGRAGAASLDVIQEVEYVKEEAKMVYLLECLQKTPPPVLIFAEKKADVDAIHEYLLLKGVEAVAIHGGKDQEERTKAIEAFREGKKDVLVATDVASKGLDFPAIQHVINYDMPEEIENYVHRIGRTGRSGNTGIATTFINKACDESVLMDLKALLLEAKQKVPPVLQVLHCGDESMLDIGGERGCAFCGGLGHRITDCPKLEAMQTKQVSNIGRKDYLAHSSMDF
B6: Snx8 (protein, UniProt Q8CFD4 1-459, looked up)
Sorting nexin-8: MTGRAMDPLPSPAVAAAAEAEADEEADPPATGPRTSQVTEWRALDPGRMQMPQGNPLLLSYTLQELLAKDTVQVELIPEKKGLFLKHVEYEVSSQRFKSSVYRRYNDFVVFHEVLLHKFPYRMVPALPPKRVLGADREFIEGRRRALKRFINLVARHPPFSEDVLLKLFLSFSGSDVQHKLKEAAQCVGDEFMNCKLAARAKDFLPADIQTQFAMSRELIRNVYNSFYKLRDRAERIASRAIDNAADLLIFGKELSALGSDTTPLPSWAALHLSTWGSLKQALKGLSVEFALLADRAAQQGKKEENDVVEKLNLFLDLLQSYKDLCERHEKGVLHKHQRALHKYGLMKRQMMSAAHGREPESVEQLESRIVEQENVIQTMELRNYFSLYCLHQETQLVHVYLPLTSHILGAFVNSQIQGHKEMSKVWNDLKPKLSCLFAGPHSVLTPPRSPQEDGVCPH
B7: Ddx47 (protein, UniProt Q9CWX9 2-455, looked up)
Probable ATP-dependent RNA …: AADEEPDSPSGALQTAAEEEETKTFKDLGVTDVLCEACDQLGWAKPTKIQIEAIPLALQGRDIIGLAETGSGKTGAFALPILNALLETPQRLFALVLTPTRELAFQISEQFEALGSSIGVQCAVIVGGIDSMSQSLALAKKPHIVIATPGRLIDHLENTKGFNLRALKYLVMDEADRILNMDFETEVDKILKVIPRDRKTFLFSATMTKKVQKLQRAALKNPVKCAVSSKYQTVEKLQQYYLFIPSKFKDTYLVYILNELAGNSFMIFCSTCNNTQRTALLLRNLGFTAIPLHGQMSQSKRLGSLNKFKAKARSILLATDVASRGLDIPHVDVVVNFDIPTHSKDYIHRVGRTARAGRSGKAITFVTQYDVELFQRIEHLIGKKLPVFPTQDEEVMMLTERVNEAQRFARMELREHGEKKKRKREDAGDDDDKEGAIGVRNKVAGGKMKKRKGR

What follows are molecules tested against T1, nSR100 (assay: AP-MS nSR100 interaction partners from mouse N2A cells (Table 5)). Conditions: bait Srrm4.
Assay type: binding
Excerpt: By applying affinity purification coupled to mass-spectrometry (AP-MS), several interaction nSR100 partner proteins were detected that provide insight into mechanisms of post-translational regulation of nSR100 levels.

AvgP (average of the SAINT scores)	MaxP (maximal SAINT score)	Molecule
1	1	B1
1	1	B2
1	1	B3
1	1	B4
1	1	B5
1	1	B6
1	1	B7

Same assay, conditions: bait Srrm4, 0.1 added to prevent division by 0

FoldChange between the prey Avg spectra of the bait and control purifications	Molecule
385	B1
160	B2
65	B3
125	B4
65	B5
145	B6
35	B7

Same assay, conditions: bait Srrm4, 2 replicates

AvgSpec (average number of spectra per replicate)	Molecule
38.5	B1
16	B2
6.5	B3
12.5	B4
6.5	B5
14.5	B6
3.5	B7

Same assay, conditions: bait Srrm4, biological replicate 1 (first number of the cell), AP-MS

Spectra (number of spectra for the prey in the purification of the bait)	Molecule
37	B1
20	B2
7	B3
12	B4
6	B5
11	B6
3	B7

Same assay, conditions: bait Srrm4, biological replicate 2 (second number of the cell), AP-MS

Spectra (number of spectra for the prey in the purification of the bait)	Molecule
40	B1
12	B2
6	B3
13	B4
7	B5
18	B6
4	B7

Same assay, conditions: bait Srrm4, sum of spectra over 2 replicates

SpecSum	Molecule
77	B1
32	B2
13	B3
25	B4
13	B5
29	B6
7	B7

Source: US10772928B2, “Modulation and detection of a neuronal alternative splicing regulatory network for treatment and diagnosis of neurological disorders” (The Governing Council of the University of Toronto, priority 2014, dated 2020)
